Assay results taken from patent publication US20050147555A1.
Positions of bridges follow the written chain, without caps; N, C: chain ends. Groups on a side chain read outwards from the residue. *: point of attachment. Biotin = O=C1N[C@H]2[C@H](CS[C@H]2CCCCC(=O)*)N1; AEEA = NCCOCCOCC(=O)O

Biological target: KDR (VEGFR-2, Flk-1), full-length receptor on cells (human), P35968
Test: competition with 125I-VEGF on KDR-transfected 293H cells
Conditions: remark: other sources report otherwise

KDR (VEGFR-2, Flk-1), full-length receptor on cells (human), P35968, sequence (P35968 20-1356): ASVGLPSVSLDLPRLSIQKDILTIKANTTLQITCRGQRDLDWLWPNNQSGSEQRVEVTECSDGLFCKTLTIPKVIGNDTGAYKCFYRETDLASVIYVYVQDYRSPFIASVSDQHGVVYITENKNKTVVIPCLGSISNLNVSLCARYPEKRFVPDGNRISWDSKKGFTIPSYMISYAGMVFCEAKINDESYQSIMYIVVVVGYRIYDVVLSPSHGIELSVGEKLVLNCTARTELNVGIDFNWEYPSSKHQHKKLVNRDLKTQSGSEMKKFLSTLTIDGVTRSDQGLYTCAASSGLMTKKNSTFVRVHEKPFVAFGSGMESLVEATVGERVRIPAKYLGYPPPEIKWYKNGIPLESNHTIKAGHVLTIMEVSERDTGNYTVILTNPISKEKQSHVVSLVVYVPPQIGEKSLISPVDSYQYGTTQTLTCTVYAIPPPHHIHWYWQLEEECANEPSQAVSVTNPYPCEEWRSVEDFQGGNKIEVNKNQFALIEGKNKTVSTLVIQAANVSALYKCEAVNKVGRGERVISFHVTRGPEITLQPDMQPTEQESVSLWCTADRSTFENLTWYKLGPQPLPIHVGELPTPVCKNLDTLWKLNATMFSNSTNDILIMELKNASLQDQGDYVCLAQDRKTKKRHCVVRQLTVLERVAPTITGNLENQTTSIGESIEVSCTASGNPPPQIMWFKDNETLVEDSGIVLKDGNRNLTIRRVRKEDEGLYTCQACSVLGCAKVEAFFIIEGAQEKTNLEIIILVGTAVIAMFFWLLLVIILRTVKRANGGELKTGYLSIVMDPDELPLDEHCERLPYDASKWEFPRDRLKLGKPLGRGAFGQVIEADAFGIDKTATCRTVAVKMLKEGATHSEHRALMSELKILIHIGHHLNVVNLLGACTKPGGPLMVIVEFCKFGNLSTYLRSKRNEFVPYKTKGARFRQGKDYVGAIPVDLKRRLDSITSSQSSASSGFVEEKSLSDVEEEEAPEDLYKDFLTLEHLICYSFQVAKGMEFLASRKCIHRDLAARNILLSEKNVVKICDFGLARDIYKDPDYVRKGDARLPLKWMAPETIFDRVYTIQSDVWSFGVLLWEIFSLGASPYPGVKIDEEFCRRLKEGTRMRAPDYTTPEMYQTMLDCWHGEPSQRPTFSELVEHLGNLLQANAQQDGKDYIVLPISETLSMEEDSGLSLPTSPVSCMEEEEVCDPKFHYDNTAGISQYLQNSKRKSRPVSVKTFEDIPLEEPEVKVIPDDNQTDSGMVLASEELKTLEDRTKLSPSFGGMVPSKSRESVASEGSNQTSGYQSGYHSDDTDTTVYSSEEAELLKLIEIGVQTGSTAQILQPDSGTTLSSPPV

B1: P5-XB (peptide)
peptide: Ac-AGPKWCEEDWYYCMITGTGGGK([AEEA-AEEA-Biotin])-NH2
modifications: disulfide 6-13
SMILES: CC[C@H](C)[C@H](NC(=O)[C@H](CCSC)NC(=O)[C@@H]1CSSC[C@H](NC(=O)[C@H](Cc2c[nH]c3ccccc23)NC(=O)[C@H](CCCCN)NC(=O)[C@@H]2CCCN2C(=O)CNC(=O)[C@H](C)NC(C)=O)C(=O)N[C@@H](CCC(=O)O)C(=O)N[C@@H](CCC(=O)O)C(=O)N[C@@H](CC(=O)O)C(=O)N[C@@H](Cc2c[nH]c3ccccc23)C(=O)N[C@@H](Cc2ccc(O)cc2)C(=O)N[C@@H](Cc2ccc(O)cc2)C(=O)N1)C(=O)N[C@H](C(=O)NCC(=O)N[C@H](C(=O)NCC(=O)NCC(=O)NCC(=O)N[C@@H](CCCCNC(=O)COCCOCCNC(=O)COCCOCCNC(=O)CCCC[C@@H]1SC[C@@H]2NC(=O)N[C@@H]21)C(N)=O)[C@@H](C)O)[C@@H](C)O
- % inhibition of 125I-VEGF binding at 0.3 µM: 24.4%
- % inhibition of 125I-VEGF binding at 30 µM: 48%
